The target of experiment [1] is T1, recombinant human DLL4 (human, UniProt Q9NR61 25-522).
T1 construct: also called rhDLL4; hDLL4
As to the kind of experiment: binding ELISA, coated rhDLL4. Here is the method:
(§1) In order to determine cross-reactivity to mouse DII4 a binding ELISA is performed. […] Wells are blocked with a casein solution (1% in PBS). VHHs are applied as dilution series and binding is detected using a mouse anti-myc (Roche) and an anti-mouse-AP conjugate (Sigma, St Louis, Mo., USA) (FIG. 7 A-H). As reference, binding to human DII4 is measured.
For orientation: ELISA stands for enzyme-linked immunosorbent assay.

The target of experiment [2] is T1, recombinant human DLL4. The experiment can be described thus: hDLL4 ELISA screen, periplasmic extract.
The target of experiment [3] is T1, recombinant human DLL4. As to the kind of experiment: competition AlphaScreen, biot-hDLL4/hNotch1-Fc; partial inhibitor.
The target of another experiment is T2, recombinant mouse DLL4 (mouse, UniProt Q9JI71 27-532).
T2 construct: extracellular domain; also called rmDLL4; mDLL4
As to the kind of experiment: binding ELISA on coated recombinant mouse DLL4, OD 405 nm. Here is the method:
as §1

The next experiment concerns the target T3, human DLL1 (human, UniProt O00548 18-545, limits assumed).
T3 construct: also called hDLL1
T3 sequence (looked up): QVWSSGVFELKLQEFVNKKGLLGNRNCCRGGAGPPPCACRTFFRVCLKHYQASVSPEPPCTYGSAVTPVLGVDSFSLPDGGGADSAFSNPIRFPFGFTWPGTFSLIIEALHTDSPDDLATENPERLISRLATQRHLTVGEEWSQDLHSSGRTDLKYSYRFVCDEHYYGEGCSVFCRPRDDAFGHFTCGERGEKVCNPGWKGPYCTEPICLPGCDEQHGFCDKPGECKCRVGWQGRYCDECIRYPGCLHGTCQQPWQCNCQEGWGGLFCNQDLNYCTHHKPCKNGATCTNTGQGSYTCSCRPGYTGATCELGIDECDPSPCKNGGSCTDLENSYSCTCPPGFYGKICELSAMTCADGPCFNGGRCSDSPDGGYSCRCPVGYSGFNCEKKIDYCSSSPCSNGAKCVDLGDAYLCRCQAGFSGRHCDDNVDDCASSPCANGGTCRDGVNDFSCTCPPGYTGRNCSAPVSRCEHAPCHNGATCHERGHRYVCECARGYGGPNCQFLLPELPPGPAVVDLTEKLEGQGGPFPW
The experiment can be described thus: binding ELISA on coated recombinant human DLL1, OD 405 nm. In short, it runs like this:
(§2)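 Plates coated overnight at 4° C with 1 μg/mL ligand, blocked with 1% casein in PBS. VHH dilution series applied; bound VHH detected via mouse anti-myc then anti-mouse-AP conjugate.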

The target of a further experiment is T4, human Jagged-1 (human, UniProt P78504 34-1067, limits assumed).
T4 construct: also called hJagged-1; hJAG1
As to the kind of experiment: binding ELISA on coated recombinant human Jagged-1, OD 405 nm. A digest of the protocol:
as §2

For experiment [4], the target named is T5, recombinant human VEGF165 (human, UniProt P15692-4 27-191, biotinylated in the competition assays).
T5 construct: Bought protein; also called hVEGF165; rhVEGF165
The experiment can be described thus: SPR Biacore, VEGF165. On the technique in general: In SPR one partner is held on a chip, and binding of the other changes the refractive index at the surface.

Experiment [5] deals with VEGF (used to stimulate HUVEC cells) (UniProt P15692-4 27-191, limits assumed). As to the kind of experiment: cell-based or functional assay.
Experiment [6] addresses T5, recombinant human VEGF165. The experiment can be described thus: AlphaScreen, hVEGF165/hVEGFR2-Fc competition. In general terms: Alpha assays give light when donor and acceptor beads are brought close together.
For experiment [7], the target named is T5, recombinant human VEGF165. As to the kind of experiment: AlphaScreen, hVEGF165/hVEGFR1-Fc competition, -HSA.
For experiment [8], the target named is T5, recombinant human VEGF165. The experiment can be described thus: AlphaScreen, hVEGF165/hVEGFR2-Fc competition, -HSA.
The target in experiment [9] is T5, recombinant human VEGF165. As to the kind of experiment: AlphaScreen, hVEGF165/hVEGFR2-Fc competition, +5 uM HSA.

The values that follow come from patent US20140120095A1 (Boehringer Ingelheim, published 2014).

T1 sequence (Q9NR61 25-522): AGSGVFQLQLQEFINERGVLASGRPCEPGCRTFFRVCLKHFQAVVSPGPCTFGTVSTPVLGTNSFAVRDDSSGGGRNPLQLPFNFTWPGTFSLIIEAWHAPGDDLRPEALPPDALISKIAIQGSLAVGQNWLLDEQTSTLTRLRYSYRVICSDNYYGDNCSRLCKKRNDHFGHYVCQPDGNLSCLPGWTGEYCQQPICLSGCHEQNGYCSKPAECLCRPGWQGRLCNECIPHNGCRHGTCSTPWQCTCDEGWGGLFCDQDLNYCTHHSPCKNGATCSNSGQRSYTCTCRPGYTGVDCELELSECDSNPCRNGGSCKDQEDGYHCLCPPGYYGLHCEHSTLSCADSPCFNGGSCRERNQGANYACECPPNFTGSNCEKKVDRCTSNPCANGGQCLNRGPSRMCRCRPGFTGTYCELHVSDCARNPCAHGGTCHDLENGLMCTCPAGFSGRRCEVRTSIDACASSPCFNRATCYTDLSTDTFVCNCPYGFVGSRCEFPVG
T2 sequence (Q9JI71 27-532): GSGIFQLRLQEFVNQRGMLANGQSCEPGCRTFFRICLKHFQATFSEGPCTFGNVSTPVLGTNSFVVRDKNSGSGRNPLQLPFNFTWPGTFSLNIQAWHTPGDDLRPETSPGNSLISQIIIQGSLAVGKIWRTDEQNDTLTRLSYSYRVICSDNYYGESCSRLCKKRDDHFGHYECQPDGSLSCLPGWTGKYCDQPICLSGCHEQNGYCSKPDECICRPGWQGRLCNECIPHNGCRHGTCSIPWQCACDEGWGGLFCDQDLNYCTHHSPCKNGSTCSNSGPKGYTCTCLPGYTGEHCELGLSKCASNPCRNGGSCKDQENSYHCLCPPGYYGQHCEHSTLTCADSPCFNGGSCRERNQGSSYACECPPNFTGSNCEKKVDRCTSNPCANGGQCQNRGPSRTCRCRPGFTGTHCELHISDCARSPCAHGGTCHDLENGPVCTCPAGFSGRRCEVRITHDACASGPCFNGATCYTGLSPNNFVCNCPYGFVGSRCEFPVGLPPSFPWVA

B1: DLLBII08C11 (VHH)
VHH: EVQLVESGGGLVQAGGSLRLSCAASGFTFDDYAIGWFRQAPGKEREGVSCISSHDRTTYYADSVKGRFTISSDNAKNTVYLQMNSLKPEDTAVYYCAADPLVCGYNDPRLADYWGQGTQVTVSS
notes: also called DLLBII8C11
In the case of B1, in the experiment with recombinant human DLL4 [1], the EC50 was 1100 pM. Besides, the “% inh” value with recombinant human DLL4 [2] was 57%. Also, in the experiment with recombinant human DLL4 [3], the half-maximal inhibitory concentration (IC50) was 700 pM. Moreover, the binding result with recombinant mouse DLL4, in the experiment with human DLL1 and with human Jagged-1 was “no binding (tested: 2.5e-7 M)” in each case.

B2: VEGFBII037 (VHH)
VHH: DVQLVESGGGLVQPGGSLRLSCAASGRTFSSYSMGWFRQAPGKEREFVVAISKGGYKYDAVSLEGRFTISRDNAKNTVYLQMNSLRPEDTAVYYCASSRAYGSSRLRLADTYEYWGQGTLVTVSS
notes: also called VEGFBII0037
With B2, the dissociation constant (Kd) in [4] was found to be 270 pM. In [5], the “% inhibition, VEGF HUVEC proliferation assay” value is 78% and the “IC50, VEGF HUVEC proliferation assay” value is 1540 pM. In experiment [6], the “% inhibition” value stood at 100% and the concentration for half-maximal inhibition (IC50) came to 300 pM.

B3: VEGFBII038 (VHH)
VHH: DVQLVESGGGLVQPGGSLRLSCAASGRTFSSYSMGWFRQAPGKEREFVVAISKGGYKYDAVSLEGRFTISRDNAKNTVYLQINSLRPEDTAVYYCASSRAYGSSRLRLADTYEYWGQGTLVTVSS
notes: also called VEGFBII0038
For the molecule B3, the Kd in [4] worked out at 360 pM. Also, the “% inhibition, VEGF HUVEC proliferation assay” value in experiment [5] worked out at 92%. The “IC50, VEGF HUVEC proliferation assay” value in experiment [5] stood at 600 pM. Further, the “% inhibition” value in experiment [6] was found to be 100%. Besides, the IC50 in experiment [6] stood at 143 pM; in [7], 200 pM; in experiment [8], 200 pM; in experiment [9] it was 100 pM. In addition, the “% inh” value in [7] was 50%; in [8], 100%.

As usually defined, the EC50 is the concentration at which the effect is half-maximal. As a reminder, the IC50 is the concentration that inhibits the measured activity by half. Broadly, the Kd is the equilibrium constant for the complex coming apart. In general, % inhibition refers to the drop in the measured response relative to a control, in per cent.
